Experimental data published in patent publication US7326541 (TARGANTA THERAPEUTICS, dated 2008).
Where no end group is shown, it is not given here.

B1: Lamin C control of the yeast two-hybrid system (pGBKLaminC) (other)
chain: MKLLSSIEQACDICRLKKLKCSKEKPKCAKCLKNNWECRYSPKTKRSPLTRAHLTEVESRLERLEQLFLLIFPREDLDMILKMDSLQDIKALLTGLFVQDNVNKDAVTDRLASVETDMPLTLRQHRISATSSSEESSNKGQRQLTVSSEEVVSREVSGIKAAYEAELGDARKTLDSVAKERARLQLELSKVREEFKELKARNTKKEGDLIAAQARLKDLEALLNSKEAALSTALSEKRTLEGELHDLRGQVAKLEAALGEAKKQLQDEMLRRVDAENRLQTMKEELDFQKNIYSEELRETKRRHETRLVEID
notes: also called pGBKT7LaminC
B2: 96 ORF 78 fused to the carboxyl terminus of the yeast Gal4 DNA binding domain (pGBK 96ORF78) (other)
chain: MKLLSSIEQACDICRLKKLKCSKEKPKCAKCLKNNWECRYSPKTKRSPLTRAHLTEVESRLERLEQLFLLIFPREDLDMILKMDSLQDIKALLTGLFVQDNVNKDAVTDRLASVETDMPLTLRQHRISATSSSEESSNKGQRQLTVSMNIMQFKSLLKSMYEETKQSDPIVANVYIETGWAVNRLLDNNELSPFDDYDRVEKKIMNEINWKKTHIKEC
B3: GST-cleaved STAAU_R9-561-599 (peptide)
chain: GQETIESLNHKLREATRIGDVELQKYYLQQIVAKNKERM
modifications: not fully specified; also: labelled with [32P] at the HMK phosphate acceptor site when used as probe
notes: not shown: vector residues left after PreScission cleavage, with the HMK phosphorylation site of pGEX-6PK
B6: GST-cleaved 96 ORF 78 polypeptide (from pGEX-6PK 96ORF078) (other)
chain: MNIMQFKSLLKSMYEETKQSDPIVANVYIETGWAVNRLLDNNELSPFDDYDRVEKKIMNEINWKKTHIKEC
modifications: labelled with [^32P] at the heart muscle kinase phosphate acceptor site when used as probe
notes: also called [^32P]-96 ORF 78; purified 96 ORF 78 protein; not shown: vector residues left after PreScission cleavage, with the HMK phosphorylation site of pGEX-6PK

What was measured:
[1] = target: T1, STAAU_R9-35 (amino acids 35 to 599 of SEQ ID NO: 2) in pGADT7, Gal4 activation domain fusion (yeast; Staphylococcus aureus, UniProt Q5HFJ8 35-599); assay: yeast two-hybrid, growth on THAL minus medium
T1 construct: Yeast two-hybrid construct
T1 sequence: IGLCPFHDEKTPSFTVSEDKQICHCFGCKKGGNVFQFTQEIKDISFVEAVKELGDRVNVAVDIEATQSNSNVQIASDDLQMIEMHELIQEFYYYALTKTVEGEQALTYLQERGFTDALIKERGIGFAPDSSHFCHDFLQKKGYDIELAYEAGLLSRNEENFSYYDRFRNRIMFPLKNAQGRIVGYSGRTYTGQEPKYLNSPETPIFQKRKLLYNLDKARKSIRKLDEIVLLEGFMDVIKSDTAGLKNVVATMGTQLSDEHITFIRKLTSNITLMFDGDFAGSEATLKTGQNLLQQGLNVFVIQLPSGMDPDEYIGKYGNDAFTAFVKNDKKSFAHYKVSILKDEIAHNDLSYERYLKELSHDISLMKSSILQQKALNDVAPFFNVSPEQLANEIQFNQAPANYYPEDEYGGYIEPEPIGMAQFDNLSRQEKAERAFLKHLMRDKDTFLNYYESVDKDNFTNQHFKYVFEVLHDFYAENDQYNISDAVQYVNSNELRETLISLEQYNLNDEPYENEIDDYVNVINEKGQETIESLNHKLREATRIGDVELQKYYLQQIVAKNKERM

[2] = target: T1, STAAU_R9-35 (amino acids 35 to 599 of …); assay: cell-based or functional assay
[3] = target: B6; assay: affinity blotting (Far western), 32P-labelled probe on renatured blotted protein
[4] = target: T2, GST (glutathione-S-transferase), negative control (UniProt P08515 1-218 = GST); assay: as above
T2 construct: also called purified GST protein
T2 sequence (P08515 whole entry): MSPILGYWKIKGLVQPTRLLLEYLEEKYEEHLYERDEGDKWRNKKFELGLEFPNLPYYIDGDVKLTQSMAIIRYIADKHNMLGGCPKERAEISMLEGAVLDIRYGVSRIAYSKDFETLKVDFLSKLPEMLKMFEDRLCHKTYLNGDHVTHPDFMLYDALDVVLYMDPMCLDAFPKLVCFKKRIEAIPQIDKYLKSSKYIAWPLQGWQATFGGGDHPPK

[5] = target: T3, GST/96ORF78 fusion protein from pGEX-6PK 96ORF078 (Staphylococcus aureus bacteriophage 96); assay: as above
T3 construct: immobilized on nitrocellulose after SDS-PAGE, denatured and renatured; also called GST/960RF78; not shown: N-terminal GST tag encoded by pGEX-6P1 (Pharmacia Amersham Biotech); PreScission protease cleavage site and heart muscle kinase (HMK) phosphorylation site of pGEX-6PK (encoded by oligonucle)
T3 chain: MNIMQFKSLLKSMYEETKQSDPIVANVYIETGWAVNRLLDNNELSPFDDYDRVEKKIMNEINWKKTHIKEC

[6] = target: B2; assay: yeast two-hybrid, growth on THAL minus medium
[7] = target: B1; assay: yeast two-hybrid, growth on THAL minus medium
[8] = target: STAAU_R9-35 (amino acids 35 to 599 of SEQ ID NO: 2) in pGBKT7, Gal4 DNA binding domain fusion (yeast; Staphylococcus aureus, UniProt P04386 1-147); assay: cell-based or functional assay
[9] = target: T4, GST/STAAU_R9-561-599 fusion protein from pGEX-6PK_STAAU_R9-561-599 (Staphylococcus aureus); assay: affinity blotting (Far western), 32P-labelled probe on renatured blotted protein
T4 construct: not shown: N-terminal GST tag encoded by pGEX-6P1 (Pharmacia Amersham Biotech); PreScission protease cleavage site, HMK phosphorylation site and cloning-site residues of pGEX-6PK
T4 chain: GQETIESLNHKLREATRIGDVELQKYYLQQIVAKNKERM

[10] = target: B3; assay: as above

B1
binding result [1]: no binding

B2
β-galactosidase activity [2]: 10 fold

B3
binding result [3]: binds | binding result [4]: no binding | binding result [5]: binds

B4: STAAU_R9 561 599 (amino acids 561-599 of STAAU_R9, SEQ ID NO: 6) in pGADT7, Gal4 activation domain fusion (other)
chain: GQETIESLNHKLREATRIGDVELQKYYLQQIVAKNKERM
notes: Yeast two-hybrid construct
binding result [6]: binds

B5: 96 ORF 78 fused to the yeast Gal4 activation domain (pGADT7) (other)
chain: MNIMQFKSLLKSMYEETKQSDPIVANVYIETGWAVNRLLDNNELSPFDDYDRVEKKIMNEINWKKTHIKEC
binding result [7]: no binding | β-galactosidase activity [8]: 10 fold

B6
binding result [9]: binds | binding result [4]: no binding | binding result [10]: binds
